± gives the uncertainty stated by the source.

First the molecules themselves.
B1: Zinc finger homeobox protein 4, residues 2562 to 2617; numbered along this chain, Q86UP3 (parent)
chain: RLRTTITPEQLEILYEKYLLDSNPTRKMLDHIAREVGLKKRVVQVWFQNTRARERK

In the data set the parent is B1. The data set can be described thus: abundance fitness (aPCA) (normalised: wild type 0, dead -1); higher = more abundant; growth selection in yeast, the domain comes from the species named. Particulars: Homo sapiens.
As for RLRTTITPEQLEWLYEKYLLDSNPTRKMLDHIAREVGLKKRVVQVWFQNTRARERK, the abundance fitness was -0.246 ± 0.067.
The figure for RLRTTITPEQLEPLYEKYLLDSNPTRKMLDHIAREVGLKKRVVQVWFQNTRARERK is -0.68 ± 0.06; for RLRTTITPEQLENLYEKYLLDSNPTRKMLDHIAREVGLKKRVVQVWFQNTRARERK it is -0.161 ± 0.24; for RLRTTITPEQLEYLYEKYLLDSNPTRKMLDHIAREVGLKKRVVQVWFQNTRARERK it is -0.017 ± 0.1.
Turning to RLRTTITPEQLEGLYEKYLLDSNPTRKMLDHIAREVGLKKRVVQVWFQNTRARERK, the abundance fitness was -0.235 ± 0.081.
With RLRTTITPEQLEDLYEKYLLDSNPTRKMLDHIAREVGLKKRVVQVWFQNTRARERK, the abundance fitness was -0.535 ± 0.23.
For RLRTTITPEQLEALYEKYLLDSNPTRKMLDHIAREVGLKKRVVQVWFQNTRARERK, the abundance fitness stood at 0.003 ± 0.08.
RLRTTITPEQLETLYEKYLLDSNPTRKMLDHIAREVGLKKRVVQVWFQNTRARERK: the abundance fitness is -0.139 ± 0.065.
The figure for RLRTTITPEQLEMLYEKYLLDSNPTRKMLDHIAREVGLKKRVVQVWFQNTRARERK is -0.088 ± 0.12; for RLRTTITPEQLESLYEKYLLDSNPTRKMLDHIAREVGLKKRVVQVWFQNTRARERK it is -0.041 ± 0.091.
To RLRTTITPEQLEQLYEKYLLDSNPTRKMLDHIAREVGLKKRVVQVWFQNTRARERK belongs 0.167 ± 0.095.
To RLRTTITPEQLEFLYEKYLLDSNPTRKMLDHIAREVGLKKRVVQVWFQNTRARERK belongs -0.084 ± 0.14; to RLRTTITPEQLEILYEEYLLDSNPTRKMLDHIAREVGLKKRVVQVWFQNTRARERK, -0.081 ± 0.28.
For RLRTTITPEQLEILYEYYLLDSNPTRKMLDHIAREVGLKKRVVQVWFQNTRARERK, the abundance fitness turned out to be 0.767 ± 0.29.
The figure for RLRTTITPEQLEILYERYLLDSNPTRKMLDHIAREVGLKKRVVQVWFQNTRARERK is -0.258 ± 0.12; for RLRTTITPEQLEILYEMYLLDSNPTRKMLDHIAREVGLKKRVVQVWFQNTRARERK it is -0.024 ± 0.23.
To RLRTTITPEQLEILYEAYLLDSNPTRKMLDHIAREVGLKKRVVQVWFQNTRARERK belongs -0.289 ± 0.2; to RLRTTITPEQLEILYENYLLDSNPTRKMLDHIAREVGLKKRVVQVWFQNTRARERK, 0.008 ± 0.11; to RLRTTITPEQLEILYEQYLLDSNPTRKMLDHIAREVGLKKRVVQVWFQNTRARERK, -0.033 ± 0.12.
Consider RLRTTITPEQLEILYEWYLLDSNPTRKMLDHIAREVGLKKRVVQVWFQNTRARERK, for which the abundance fitness is -0.58 ± 0.27.
With RLRTTITPEQLEILYEPYLLDSNPTRKMLDHIAREVGLKKRVVQVWFQNTRARERK, the abundance fitness was -0.334 ± 0.42.
To RLRTTITPEQLEILYELYLLDSNPTRKMLDHIAREVGLKKRVVQVWFQNTRARERK belongs -0.508 ± 0.33; to RLRTTITPEQLEILYEHYLLDSNPTRKMLDHIAREVGLKKRVVQVWFQNTRARERK, -0.441 ± 0.36.
The figure for RLRTTITPEQLEILYETYLLDSNPTRKMLDHIAREVGLKKRVVQVWFQNTRARERK is -0.109 ± 0.14.
With RLRTTITPEQLEILYEVYLLDSNPTRKMLDHIAREVGLKKRVVQVWFQNTRARERK, the abundance fitness was -0.552 ± 0.23.
Regarding RLRTTITPEQLEILYESYLLDSNPTRKMLDHIAREVGLKKRVVQVWFQNTRARERK, the abundance fitness is -0.164 ± 0.16.
As for RLRTTITPEQLEILYEGYLLDSNPTRKMLDHIAREVGLKKRVVQVWFQNTRARERK, the abundance fitness is -0.513 ± 0.2.
To RLRTTITPEQLEILYEKYALDSNPTRKMLDHIAREVGLKKRVVQVWFQNTRARERK belongs -0.094 ± 0.077; to RLRTTITPEQLEILYEKYCLDSNPTRKMLDHIAREVGLKKRVVQVWFQNTRARERK, -0.084 ± 0.1.
To RLRTTITPEQLEILYEKYDLDSNPTRKMLDHIAREVGLKKRVVQVWFQNTRARERK belongs -0.098 ± 0.097; to RLRTTITPEQLEILGEKYLLDSNPTRKMLDHIAREVGLKKRVVQVWFQNTRARERK, 0.009 ± 0.057.
Consider RLRTTITPEQLEILDEKYLLDSNPTRKMLDHIAREVGLKKRVVQVWFQNTRARERK, for which the abundance fitness is -0.02 ± 0.12.
To RLRTTITPEQLEILQEKYLLDSNPTRKMLDHIAREVGLKKRVVQVWFQNTRARERK belongs 0.092 ± 0.068; to RLRTTITPEQLEILREKYLLDSNPTRKMLDHIAREVGLKKRVVQVWFQNTRARERK, 0.161 ± 0.044.
To RLRTTITPEQLEILTEKYLLDSNPTRKMLDHIAREVGLKKRVVQVWFQNTRARERK belongs 0.067 ± 0.086; to RLRTTITPEQLEILAEKYLLDSNPTRKMLDHIAREVGLKKRVVQVWFQNTRARERK, -0.105 ± 0.068.
To RLRTTITPEQLEILCEKYLLDSNPTRKMLDHIAREVGLKKRVVQVWFQNTRARERK belongs -0.063 ± 0.069.
With RLRTTITPEQLEILVEKYLLDSNPTRKMLDHIAREVGLKKRVVQVWFQNTRARERK, the abundance fitness was -0.206 ± 0.071.
Regarding RLRTTITPEQLEILWEKYLLDSNPTRKMLDHIAREVGLKKRVVQVWFQNTRARERK, the abundance fitness was 0.048 ± 0.061.
The figure for RLRTTITPEQLEILPEKYLLDSNPTRKMLDHIAREVGLKKRVVQVWFQNTRARERK is -0.781 ± 0.073.
With RLRTTITPEQLEILIEKYLLDSNPTRKMLDHIAREVGLKKRVVQVWFQNTRARERK, the abundance fitness is -0.224 ± 0.093.
RLRTTITPEQLEILNEKYLLDSNPTRKMLDHIAREVGLKKRVVQVWFQNTRARERK: the abundance fitness is 0.075 ± 0.094.
The figure for RLRTTITPEQLEILFEKYLLDSNPTRKMLDHIAREVGLKKRVVQVWFQNTRARERK is -0.193 ± 0.13; for RLRTTITPEQLEILKEKYLLDSNPTRKMLDHIAREVGLKKRVVQVWFQNTRARERK it is 0.1 ± 0.05.
The figure for RLRTTITPEQLEILLEKYLLDSNPTRKMLDHIAREVGLKKRVVQVWFQNTRARERK is 0.054 ± 0.059.
Regarding RLRTTITPEQLEILEEKYLLDSNPTRKMLDHIAREVGLKKRVVQVWFQNTRARERK, the abundance fitness was determined as 0.301 ± 0.071.
As to RLRTTITPEQLEILHEKYLLDSNPTRKMLDHIAREVGLKKRVVQVWFQNTRARERK, the abundance fitness amounted to 0.085 ± 0.1.

The values are drawn from the Human Domainome abundance scans (Beltran et al. 2025).
